Test results: patent US7745159

Columns and labels:
[1] = molecular target: antigen defined by MAb OV569 on human carcinoma cell surfaces (human); experiment: flow cytometry, OV569 supernatant on ovarian carcinoma line H3907, against an irrelevant MAb
[2] = molecular target: antigen defined by MAb OV569 on human carcinoma cell surfaces (human); experiment: flow cytometry, OV569 supernatant on lung carcinoma line H4013, against an irrelevant MAb
[3] = molecular target: antigen defined by MAb OV569 on human carcinoma cell surfaces (human); experiment: flow cytometry, OV569 supernatant on lung carcinoma line H3776, against an irrelevant MAb
[4] = molecular target: antigen defined by MAb OV569 on human carcinoma cell surfaces (human); experiment: flow cytometry, OV569 supernatant on ovarian carcinoma line H3909, against an irrelevant MAb
[5] = molecular target: antigen defined by MAb OV569 on human carcinoma cell surfaces (human); experiment: flow cytometry, OV569 supernatant on ovarian carcinoma line H4014, against an irrelevant MAb
[6] = molecular target: antigen defined by MAb OV569 on human carcinoma cell surfaces (human); experiment: flow cytometry, OV569 supernatant on ovarian carcinoma line H3750, against an irrelevant MAb
[7] = molecular target: antigen defined by MAb OV569 on human carcinoma cell surfaces (human); experiment: flow cytometry, OV569 supernatant on ovarian carcinoma line H4012, against an irrelevant MAb
[8] = molecular target: antigen defined by MAb OV569 on human carcinoma cell surfaces (human); experiment: flow cytometry, OV569 supernatant on ovarian carcinoma line H4010-1, against an irrelevant MAb
[9] = molecular target: antigen defined by MAb OV569 on human carcinoma cell surfaces (human); experiment: flow cytometry, OV569 supernatant on ovarian carcinoma line H4007, against an irrelevant MAb
[10] = molecular target: antigen defined by MAb OV569 on human carcinoma cell surfaces (human); experiment: flow cytometry, OV569 supernatant on lung carcinoma line H3963, against an irrelevant MAb
[11] = molecular target: antigen defined by MAb OV569 on human carcinoma cell surfaces (human); experiment: flow cytometry, OV569 supernatant on lung carcinoma line H2981, against an irrelevant MAb
[12] = molecular target: antigen defined by MAb OV569 on human carcinoma cell surfaces (human); experiment: flow cytometry, OV569 supernatant on ovarian carcinoma line H3759, against an irrelevant MAb
[13] = molecular target: antigen defined by MAb OV569 on human carcinoma cell surfaces (human); experiment: flow cytometry, OV569 supernatant on ovarian carcinoma line H4002, against an irrelevant MAb
[14] = molecular target: antigen defined by MAb OV569 on human carcinoma cell surfaces (human); experiment: flow cytometry, OV569 supernatant on lung carcinoma line H3754, against an irrelevant MAb
[15] = molecular target: antigen defined by MAb OV569 on human carcinoma cell surfaces (human); experiment: flow cytometry, OV569 supernatant on ovarian carcinoma line H4004, against an irrelevant MAb
[16] = molecular target: antigen defined by MAb OV569 on human carcinoma cell surfaces (human); experiment: flow cytometry, OV569 supernatant on ovarian carcinoma line H3633, against an irrelevant MAb
[17] = molecular target: antigen defined by MAb OV569 on human carcinoma cell surfaces (human); experiment: flow cytometry, OV569 supernatant on lung carcinoma line H2987, against an irrelevant MAb
[18] = molecular target: antigen defined by MAb OV569 on human carcinoma cell surfaces (human); experiment: flow cytometry, OV569 supernatant on ovarian carcinoma line H4006, against an irrelevant MAb
[19] = molecular target: antigen defined by MAb OV569 on human carcinoma cell surfaces (human); experiment: flow cytometry, OV569 supernatant on ovarian carcinoma line H3659.5, against an irrelevant MAb
[20] = molecular target: antigen defined by MAb OV569 on human carcinoma cell surfaces (human); experiment: flow cytometry, OV569 supernatant on ovarian carcinoma line H3538, against an irrelevant MAb

Q: Which results are given for monoclonal antibody OV569?
A: LFE(sample)/LFE(control) [1]: 3.85; LFE(sample)/LFE(control) [2]: 7; LFE(sample)/LFE(control) [3]: 1.33; LFE(sample)/LFE(control) [4]: 3.84; LFE(sample)/LFE(control) [5]: 1; LFE(sample)/LFE(control) [6]: 2.57; LFE(sample)/LFE(control) [7]: 1; LFE(sample)/LFE(control) [8]: 1.12; LFE(sample)/LFE(control) [9]: 8.72; LFE(sample)/LFE(control) [10]: 1.11; LFE(sample)/LFE(control) [11]: 1.3; LFE(sample)/LFE(control) [12]: 6.74; LFE(sample)/LFE(control) [13]: 8.48; LFE(sample)/LFE(control) [14]: 1.59; LFE(sample)/LFE(control) [15]: 2.43; LFE(sample)/LFE(control) [16]: 1; LFE(sample)/LFE(control) [17]: 1.25; LFE(sample)/LFE(control) [18]: 2.53; LFE(sample)/LFE(control) [19]: 5.63; LFE(sample)/LFE(control) [20]: 2.55
